Source: the supplement of paper PMC9170038

System: MS2 coat protein
Test: apparent KD of MS2 coat protein; designed switch direction (-1 OFF switch, 1 ON switch): -1; higher = weaker reporter binding
In short: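 The apparent KD reported per design is the median over clusters of curve fits to normalised cluster fluorescence. The RNA switches were transcribed on Illumina chips by stalled E. coli RNA polymerase. SNAP-549-labelled MS2 coat protein was titrated from 0.7 or 1.5 nM, doubling up to 3 µM, in Tris-HCl pH 7.5 buffer containing KCl, MgCl2, BSA, DTT, tRNA and Tween-20, with no input, 200 uM small-molecule ligand, or an oligonucleotide input.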

[1] = Eterna round: R95, input ligand: FMN 200 uM
[2] = Eterna round: R95, input ligand: microRNA oligo, concentration not stated
[3] = Eterna round: R95, input ligand: none
[4] = input ligand: microRNA oligo, concentration not stated

Row | Sequence | apparent KD of MS2 coat protein (input ligand: FMN 200 uM) [nM] | apparent KD of MS2 coat protein (input ligand: none) [nM] | apparent KD of MS2 coat protein [1] [nM] | apparent KD of MS2 coat protein [2] [nM] | apparent KD of MS2 coat protein [3] [nM] | apparent KD of MS2 coat protein [4] [nM]
1 | AGAUUGAAUGAGGAUAUCGUUGCGGGUACGUAGCGAGAAGGCAUGACAUGAGGAUCACCCAUGUAGUGUGGGUU [JR_Ex6_Sub019] (Eterna round: R97, puzzle: Exclusion 6) | 805 | 336 |  |  |  | 
2 | UUUAAUUUUUUUUUUUUACAAGCUUUUUGCUCGUCUUAUACAUGAGGAUCACCCAUGUAGGUGGGAGAUAAAUUAUC [JMF 23] (puzzle: Sensor v3, turn-off variant 2) |  |  | 87.8 | 392 | 131 | 
3 | GUCACUAGAGGAUAUACAAUGGUAUAUGAUCCUAGAGACAAACAUGAGGAUCACCCAUGUAGAAGGCUAGUAAA [Exclusion 2 - 1] (puzzle: Exclusion 2) |  |  | 32.1 | 153 | 89.5 | 
4 | CUGGUGUGAGGAUAUCAAAGACCUCGGGAAAGAACCGAGAAUGAGAAGGCACAUGAGGAUCACCCAUGUAACAA [Enerteon] (puzzle: Exclusion 4) |  |  |  | 17.9 |  | 
5 | GUUCGACAUGAGGAUCACCCAUGUGAGGAUAUACGAUUAGCUGCUAGGUAGUUAGUAUGUAGAAGGUGCGUGAA [EX1 #72] (Eterna round: R97, puzzle: Exclusion 1) | 44 | 41.6 |  |  |  | 
6 | CGUGUGCAGUAGGAUAUCCAAAUCCUGUGGAUAGGAGAAGGACUGACAUGAGGAUCACCCAUGUGGGUAAAGAC [Velaxediza] (puzzle: Exclusion 6) |  |  | 48.8 | 63.7 | 57.7 | 
7 | GACCCUAGGGUCAGAUGCACAAGCUUUUUGCUCGUUUUAACAUGAGGAUCACCCAUGUCUAGUGGAUCUGAUCGGGC [Erorente] (puzzle: Sensor v3, turn-off variant 2) |  |  | 20.6 | 88.8 | 18.2 | 
8 | CUUAUGGUCCAUACCUAGAACAUGAGGAUCACCCAUGUAAUACAUGACACCUACCUUAAGCACAGCUCGUCUUGUAG [Eternabot (Original) Solution 30] (Eterna round: R97, puzzle: Sensor, turn-off variant 1) | 48.9 | 57 |  |  |  | 
9 | AUGGACGCAGGAUAUACAUGAGGAUCACCCAUGUUAGGGUUAAGAGAAGGAAGGGAGAGUAGAAGGGCGAGAGU [JR_Exclu3_Sub0100] (puzzle: Exclusion 3) |  |  |  | 110 |  | 
10 | GAAAGACAUGAGGAUCACCCAUGUCAGGAUAUGAUGCCAGCGUAGCUAGUAGGUUUUGUCAGAAGGGACGGGUU [Eternabot (L1) Solution 70] (Eterna round: R97, puzzle: Exclusion 1) | 32.2 | 27.4 |  |  |  | 
11 | AAGAAACAUGAGGAUCACCCAUGUGAGGAUAUGAACCGCCCGGCGUAAGCAAAAUAAAUCAGAAGGCACAAAGG [salish99_ex1_r4_006] (Eterna round: R97, puzzle: Exclusion 1) | 38.3 | 32.2 |  |  |  | 
12 | CCGCAGCAAGGAUAUACUUGCGGUGGUGAACGAGGGCUUAUACUUGAGGAUCACCCAAGUAGAAGGUGCAAAAC [Mamaed] (Eterna round: R97, puzzle: Exclusion 2) | 33.9 | 22.4 |  |  |  | 
13 | AAUGGCUGAGGAUAUACACUCACGUCUAAAAGGUUCAAAUGACAUGAGGAUCACCCAUGUAGAAGGCAGCCCGA [Regeor] (puzzle: Exclusion 2) |  |  |  | 98.4 |  | 
14 | AGAAAUGCCCAUGGCCGCAAGCUUCUUGCUUGUCUUACCACAUGAGGAUCACCCAUGUGACAUGGGCUCCUUAUAAU [Xeceenqu] (puzzle: Sensor v3, turn-off variant 2) |  |  | 12.5 | 9.59 | 11.3 | 
15 | ACCGAAGCAGGAUAUACAUGAGGAUCACCCAUGUGCUUGCAUGGCGUGGGAAGUCAUAGUAGAAGGGCUACGCC [Onzaza] (Eterna round: R97, puzzle: Exclusion 3) | 53 | 22.4 |  |  |  | 
16 | AGCAAGCUUUUAAGAUCCUACAUGAGGAUCACCCAUGUGCUCGUCUUAUAACGUACUGUGACGAAAGUCACGGUACG [JL TOV1 3.32] (Eterna round: R97, puzzle: Sensor, turn-off variant 1) | 253 | 217 |  |  |  | 
17 | CACAUUACAAAGGAUAUCUGACCAUGCCCUGGCAGAGAAGGUUGGACAUGAGGAUCACCCAUGUGUAUCCAAGU [Eternabot (Original) Solution 6] (Eterna round: R97, puzzle: Exclusion 6) | 37.7 | 26.8 |  |  |  | 
18 | GUUGCUACUGAGGAUAUUAUUUUACCCGACUGAUAAGAAGGCAGUACAUGAGGAUCACCCAUGUGGGUAGCCAG [Polaris15] (Eterna round: R97, puzzle: Exclusion 6) | 44.1 | 21.8 |  |  |  | 

Row | Sequence | apparent KD of MS2 coat protein (input ligand: FMN 200 uM) [nM] | apparent KD of MS2 coat protein (input ligand: none) [nM] | apparent KD of MS2 coat protein [1] [nM] | apparent KD of MS2 coat protein [2] [nM] | apparent KD of MS2 coat protein [3] [nM] | apparent KD of MS2 coat protein [4] [nM]
19 | GAUGCUUCGGCAUCUACAAGCUUUUUGCUCGUCUUAUUAACAUGAGGAUCACCCAUGUUAAUGAGACCUCAUGUAUU [Sensor v3 - turn-off variant 2 - 7] (puzzle: Sensor v3, turn-off variant 2) |  |  | 13.5 | 14.9 | 11.1 | 
20 | AAGAAGUGAGGAUAUGGCCGGGUCCCUGGGUUUGGACCCGGCCAGAAGGCACAUGAGGAUCACCCAUGUAAGAA [Excls4-X] (puzzle: Exclusion 4) |  |  |  | 21.1 |  | 
21 | UAAGUUUACCGAGGAUAUGGUCCAUAAUUUUUACCAGAAGGCGGACUCAACAUGAGGAUCACCCAUGUAUAAAGGGUAUUUGGU [JR_ExcNG1_Sub046] (Eterna round: R96, puzzle: Exclusion NG 1) | 51.2 | 35.8 |  |  |  | 27.4
22 | GCAGCAUAGUCCAAAUAGGACAUACAUGAGGAUCACCCAUGUCAGGAUAUGGUCUGGAUUACAGGCCAGAAGGGACGAAGCUGC [Eli exng3 - 005] (Eterna round: R96, puzzle: Exclusion NG 3) | 18 | 22.6 |  |  |  | 16.4
23 | GUGGCACAUGAGGAUCACCCAUGUUAGGAUAUGCUCAAAACGCCCUAGGGUAAGCUGUGUAGAAGGAGCAGGAC [Eternabot (L1) Solution 52] (Eterna round: R97, puzzle: Exclusion 1) | 33.7 | 35.6 |  |  |  | 
24 | GCUAGAGCAGGAUAUCUAGAUCCACACAUGAGGAUCACCCAUGUAGUCGAAAGACUAAGAAGAGAAGGGCUCUAGC [Omei Ex5 E16] (Eterna round: R97, puzzle: Exclusion 5) | 322 | 324 |  |  |  | 
25 | CCAGCGAGUGUGAGGAUAUGCUGGUCCUUGGAUCAGCAGAAGGCACAUGAGGAUCACCCAUGUGAGGACGUUGG [JL bmx4 3.31] (Eterna round: R96, puzzle: Brourd's mod of Exclusion 4) | 294 | 31.9 |  |  |  | 27.9
26 | GUGGUGGGUUUUUCGAGUAACAUGAGGAUCACCCAUGUAUUAGUUGGAUGUAUCAAGCUUUGUGCUCGACUUAUAUA [JR_SV3TOV1_Sub044] (puzzle: Sensor v3, turn-off variant 1) |  |  | 659 | 442 | 696 | 
27 | UGUCUUGCAGGAUAUCAUGUGAUAUACAUGAGGAUCACCCAUGUUAGCCUCAUGAGCGUCUGAGAAGGGUAAGACG [Eternabot (L2) Solution 22] (Eterna round: R97, puzzle: Exclusion 5) | 131 | 40.1 |  |  |  | 
28 | UUUAAUUUUUUUUUUUUACAAGCUUUUUGCUCGUCUUAUACAUGAGGAUCACCCAUGUGGGUAGAGAGUAAAUUAUC [JMF 59] (Eterna round: R96, puzzle: Sensor v3, turn-off variant 2) | 21.1 | 19.3 |  |  |  | 102
29 | AGAUGUAGAUACCGAUCCUACAUGAGGAUCACCCAUGUAGCUAGACGUGCGCGCGUCGCUCGUCAGACUACCAGUAG [salish99_TOv1_r3_092] (puzzle: Sensor v3, turn-off variant 1) |  |  | 330 | 296 | 157 | 
30 | AGAUCACAUGAGGAUCACCCAUGUCAGGAUAUCGACUGAUCAGCUUCGGCUGAUCAGUCGAGAAGGGACAAUUA [E1/1-A2] (Eterna round: R97, puzzle: Exclusion 1) | 511 | 280 |  |  |  | 
31 | AAAAAUUACAUGAGGAUCACCCAUGUAGAGUGGGAAGAGAGAUAGGAUAUGAUGUGAGAAUCAUAUCAGAAGGAUCGAGACUCA [AK ExNG3-2.1] (Eterna round: R96, puzzle: Exclusion NG 3) | 129 | 119 |  |  |  | 126
32 | AUCAGCUCGUGAGGAUAUACAUGAGGAUCACCCAUGUGAUCAAUAGCAGCUUCGGCUGCAUUAAUGUAGAAGGUACGAGCUGAU [ENG2/5-C3] (Eterna round: R96, puzzle: Exclusion NG 2) | 114 | 961 |  |  |  | 216
33 | CCAAUGUAAGGAUAUGACAAUGGUAUCUUCGGAUACCAUUGUCAGAAGGUACAUGAGGAUCACCCAUGUAUAAA [Ex4-3: 10] (puzzle: Exclusion 4) |  |  |  | 17.3 |  | 
34 | AAUAAUGAUAAGGAUAUCACUAGCUGCGGCUAGUGAGAAGGUAUCACAUGAGGAUCACCCAUGUGUUCCAAUAA [Ex6/6-A3] (Eterna round: R97, puzzle: Exclusion 6) | 33.1 | 14.1 |  |  |  | 
35 | ACAAGCUUAAUCAGUAAGAACAUGAGGAUCACCCAUGUAAAUGAAAGGACUAUUGGGUUAUUUAAAGCUCGUCUUAU [JR_STOV1_Sub014] (Eterna round: R97, puzzle: Sensor, turn-off variant 1) | 52.1 | 52.8 |  |  |  | 
